{"source": "paper PMC13242717", "origin": "cited, not measured here", "target": "spike protein (SARS-CoV-2) (UniProt P0DTC2)"}
{"substance": "spike protein (from UniProt P0DTC2)", "values": [{"measurement": "Kd", "result": 300, "unit": "nM"}]}
